The test system of assay [1] is L428 cells. Kind of assay: JNG assay, co-culture with L428 cells. In kind it is cell-based. As for the experimental part:
Cellular supernatant is collected and assayed for the induction of cytokines (e.g., IL2).
JNG (Jurkat cells expressing EGFP under an NFAT promoter) were infected with lentiviral vectors encoding different single chain and multi-chain SARs by spinfection in the presence of 8 µg/ml of Polybrene® (Sigma, Catalog no. H9268). The Jurkat-NFAT-GFP cells are engineered in such a way that the IL-2 promoter, which carries NFAT binding sites, is cloned upstream of the GFP gene. These cells have been used to study signaling via TCR and CAR. The different SARs were stably expressed in Jurkat NFAT-GFP cells by lentiviral mediated gene transfer, followed by selection with puromycin or blasticidin. No drug selection was used in case the construct lacked an antibiotic resistance gene. The SAR-expressing Jurkat-NFAT-GFP cells were cocultured with the target cells at E:T ratio of approximately 1:2 for approximately 4 hours to 18 hours. When the interaction between SIRs and their target antigen results in activation of the NFAT pathway, GFP expression is induced. […] GFP expression was monitored by FACS analysis. The Jurkat-NFAT-GFP (parental) cells were used as control. The structure of different constructs can be determined based on their names. […] The sequence of the other constructs in the table can be similarly determined from their names and by referring to the different Tables of this disclosure that provide the names and SEQ ID NO of the different modules. Alternatively, the composition and modular architecture of the different SAR constructs can be determined from their sequences by bioinformatics tools, including using nucleic acid and amino acids homology searches. […] The signs +/-, +, 2+ etc. after the name of the cell lines indicate the relative degree of positivity on the Jurkat-NFAT-GFP assay as measured by the % GFP positive cells after culture of the SAR expressing Jurkat-NFAT-GFP cells with that cell line above the % GFP cells observed in parental Jurkat NFAT-GFP cells serving as controls. […]

The test system of assay [2] is DAUDI (CD20+) cells. In kind it is cell-based.
The subject of assay [3] is RAJI cells. The experiment in a line: JNG (Jurkat NFAT-GFP) cells expressing SAR: GFP induction on co-culture with RAJI.
Assay [4] relates to RS411 cells. In kind it is cell-based.

This is an account of results in patent US20230212319A1, “NOVEL ANTIGEN BINDING DOMAINS AND SYNTHETIC ANTIGEN RECEPTORS INCORPORATING THE SAME” (University of Southern California, priority 2020, published 2023).

B1: 22292 (protein)
chain: MALPVTALLLPLALLLHAARPACMGSWFEFYDRLNAIDARLWALGGSEAELAAFEKEIAAFESELQAYKGKGNPEVENLRVHAAAIREWLQAYRHNGTGGGGSGGGGSGGGGSEFDIQMTQSPSSLSASVGDRVTITCKASDHINNWLAWYQQKPGQAPKLLIYGATTLETGVPSRFSGSGSGTDYTLTISSLQPEDFATYYCQQSWNTPWTFGQGTKLEIKRLEDLKNVFPPEVAVFEPSEAEISHTQKATLVCLATGFYPDHVELSWWVNGKEVHSGVCTDPQPLKEQPALNDSRYCLSSRLRVSATFWQNPRNHFRCQVQFYGLSENDEWTQDRAKPVTQIVSAEAWGRADCGFTSESYQQGVLSATILYEILLGKATLYAVLVSALVLMAMVKRKDSRGRAKRSGSGATNFSLLKQAGDVEENPGPTSMDWIWRILFLVGAATGAHSFEQVQLQQPGAELVKPGASVKMSCKASGYAFSSYWINWMKQKPGQGLEWIGQIYPGDGDTNYNGKFKGRATLTADTSSSTAYMQLSSLTSEDSAVYFCARSITTVVGCAMDYWGQGTSVTVSSTRIQNPDPAVYQLRDSKSSDKSVCLFTDFDSQTNVSQSKDSDVYITDKCVLDMRSMDFKSNSAVAWSNKSDFACANAFNNSIIPEDTFFPSPESSCDVKLVEKSFETDTNLNFQNLSVIGFRILLLKVAGFNLLMTLRLWSSRAKRSGSGVKQTLNFDLLKLAGDVESNPGPSRGHMTEYKPTVRLATRDDVPRAVRTLAAAFADYPATRHTVDPDRHIERVTELQELFLTRVGLDIGKVWVADDGAAVAVWTTPESVEAGAVFAEIGPRMAELSGSRLAAQQQMEGLLAPHRPKEPAWFLATVGVSPDHQGKGLGSAVVLPGVEAAERAGVPAFLETSAPRNLPFYERLGFTVTADVEVPEGPRTWCMTRKPGA
B1: the “NFAT-GFP ASSAY: L428 with bc40-p26-CD123-cg06” value in assay [1] (L428 in presence of SAR adaptor bc40-p26-CD123-cg06) was “+3”.

B2: 22164 (protein)
chain: MALPVTALLLPLALLLHAARPDIQMTQSPSSLSASVGDRVTITCKASDHINNWLAWYQQKPGQAPKLLIYGATTLETGVPSRFSGSGSGTDYTLTISSLQPEDFATYYCQQSWNTPWTFGQGTKLEIKRLEDLKNVFPPEVAVFEPSEAEISHTQKATLVCLATGFYPDHVELSWWVNGKEVHSGVCTDPQPLKEQPALNDSRYCLSSRLRVSATFWQNPRNHFRCQVQFYGLSENDEWTQDRAKPVTQIVSAEAWGRADCGFTSESYQQGVLSATILYEILLGKATLYAVLVSALVLMAMVKRKDSRGRAKRSGSGATNFSLLKQAGDVEENPGPTSATMDWIWRILFLVGAATGAHSGPEVQLVESGGGLVQAGGSLRLSCAASGSVFSGNVMGWYRQAPGKEREWVAAIASGGSIYYRDSVKGRFTISRDNAKNTVYLQMNSLKPEDTAVYYCNSHPPTLPYWGLGTQVTVSSGSGGGGSGGGGSGGGGSFEQVQLQQPGAELVKPGASVKMSCKASGYAFSSYWINWMKQKPGQGLEWIGQIYPGDGDTNYNGKFKGRATLTADTSSSTAYMQLSSLTSEDSAVYFCARSITTVVGCAMDYWGQGTSVTVSSTRIQNPDPAVYQLRDSKSSDKSVCLFTDFDSQTNVSQSKDSDVYITDKCVLDMRSMDFKSNSAVAWSNKSDFACANAFNNSIIPEDTFFPSPESSCDVKLVEKSFETDTNLNFQNLSVIGFRILLLKVAGFNLLMTLRLWSSRAKRSGSGVKQTLNFDLLKLAGDVESNPGPSRGHMTEYKPTVRLATRDDVPRAVRTLAAAFADYPATRHTVDPDRHIERVTELQELFLTRVGLDIGKVWVADDGAAVAVWTTPESVEAGAVFAEIGPRMAELSGSRLAAQQQMEGLLAPHRPKEPAWFLATVGVSPDHQGKGLGSAVVLPGVEAAERAGVPAFLETSAPRNLPFYERLGFTVTADVEVPEGPRTWCMTRKPGA
As to B2, in assay [1] (co-culture with L428), the “NFAT-GFP ASSAY: L428” value is 3+ (refer to approximately 5%, 10%, 20%, 30%, 40% and 50% GFP positive cells).

B3: 4088 (protein)
chain: MALPVTALLLPLALLLHAARPDIQMTQSPSSLSASVGDRVTITCKASDHINNWLAWYQQKPGQAPKLLIYGATTLETGVPSRFSGSGSGTDYTLTISSLQPEDFATYYCQQSWNTPWTFGQGTKLEIKRLEIQNPDPAVYQLRDSKSSDKSVCLFTDFDSQTNVSQSKDSDVYITDKCVLDMRSMDFKSNSAVAWSNKSDFACANAFNNSIIPEDTFFPSSDVPCDVKLVEKSFETDTNLNFQNLSVIGFRILLLKVAGFNLLMTLRLWSSRAKRSGSGVKQTLNFDLLKLAGDVESNPGPTSMDWIWRILFLVGAATGAHSGPQVQLQESGGGLAQAGGSLRLSCAASGRTFSMGWFRQAPGKEREFVAAITYSGGSPYYASSVRGRFTISRDNAKNTVYLQMNSLKPEDTAVYYCAANPTYGSDWNAENWGQGTQVTVSSGSGGGGSGGGGSGGGGSFEQVQLQQPGAELVKPGASVKMSCKASGYAFSSYWINWMKQKPGQGLEWIGQIYPGDGDTNYNGKFKGRATLTADTSSSTAYMQLSSLTSEDSAVYFCARSITTVVGCAMDYWGQGTSVTVSSTREDLKNVFPPEVAVFEPSKAEIAHTQKATLVCLATGFYPDHVELSWWVNGKEVHSGVCTDPQPLKEQPALNDSRYCLSSRLRVSATFWQNPRNHFRCQVQFYGLSENDEWTQDRAKPVTQIVSAEAWGRADCGITSASYHQGVLSATILYEILLGKATLYAVLVSALVLMAMVKRKDSRGRAKRSGSGATNFSLLKQAGDVEENPGPSRGHMTEYKPTVRLATRDDVPRAVRTLAAAFADYPATRHTVDPDRHIERVTELQELFLTRVGLDIGKVWVADDGAAVAVWTTPESVEAGAVFAEIGPRMAELSGSRLAAQQQMEGLLAPHRPKEPAWFLATVGVSPDHQGKGLGSAVVLPGVEAAERAGVPAFLETSAPRNLPFYERLGFTVTADVEVPEGPRTWCMTRKPGA
modifications: Synthetic Polynucloetide
With B3, the “GFP induction (JNG-GFP induction assay), DAUDI” value in assay [2] is recorded as “highly positive”. In addition, the “GFP induction (JNG-GFP induction assay), RAJI WT” value in assay [3] is “positive”. In assay [4], the “GFP induction (JNG-GFP induction assay), RS;411” value is given as “highly positive”.

B4: 4090 (protein)
chain: MALPVTALLLPLALLLHAARPDIQMTQSPSSLSASVGDRVTITCKASDHINNWLAWYQQKPGQAPKLLIYGATTLETGVPSRFSGSGSGTDYTLTISSLQPEDFATYYCQQSWNTPWTFGQGTKLEIKRLEDLKNVFPPEVAVFEPSEAEISHTQKATLVCLATGFYPDHVELSWWVNGKEVHSGVCTDPQPLKEQPALNDSRYCLSSRLRVSATFWQNPRNHFRCQVQFYGLSENDEWTQDRAKPVTQIVSAEAWGRADCGFTSESYQQGVLSATILYEILLGKATLYAVLVSALVLMAMVKRKDSRGRAKRSGSGATNFSLLKQAGDVEENPGPTSMDWIWRILFLVGAATGAHSGPQVQLQESGGGLAQAGGSLRLSCAASGRTFSMGWFRQAPGKEREFVAAITYSGGSPYYASSVRGRFTISRDNAKNTVYLQMNSLKPEDTAVYYCAANPTYGSDWNAENWGQGTQVTVSSGSGGGGSGGGGSGGGGSFEQVQLQQPGAELVKPGASVKMSCKASGYAFSSYWINWMKQKPGQGLEWIGQIYPGDGDTNYNGKFKGRATLTADTSSSTAYMQLSSLTSEDSAVYFCARSITTVVGCAMDYWGQGTSVTVSSTRIQNPDPAVYQLRDSKSSDKSVCLFTDFDSQTNVSQSKDSDVYITDKCVLDMRSMDFKSNSAVAWSNKSDFACANAFNNSIIPEDTFFPSPESSCDVKLVEKSFETDTNLNFQNLSVIGFRILLLKVAGFNLLMTLRLWSSRAKRSGSGVKQTLNFDLLKLAGDVESNPGPSRGHMTEYKPTVRLATRDDVPRAVRTLAAAFADYPATRHTVDPDRHIERVTELQELFLTRVGLDIGKVWVADDGAAVAVWTTPESVEAGAVFAEIGPRMAELSGSRLAAQQQMEGLLAPHRPKEPAWFLATVGVSPDHQGKGLGSAVVLPGVEAAERAGVPAFLETSAPRNLPFYERLGFTVTADVEVPEGPRTWCMTRKPGA
modifications: Synthetic Polynucloetide
As to B4, the “GFP induction (JNG-GFP induction assay), DAUDI” value in assay [2] is recorded as “highly positive”. Also, the “GFP induction (JNG-GFP induction assay), RAJI WT” value in assay [3] is reported as “positive”. In assay [4], the “GFP induction (JNG-GFP induction assay), RS;411” value was “highly positive”.
